# Assay results: article PMC10241913 (Nature Communications, 2023)
# Assays:
# Settings in all cases: both partners purified
# p97 wild type (1-806) = target: T1, p97 wild type (1-806) (UniProt P55072 1-806); test: fluorescence polarisation; displacement titration: UBXD1 incubated with 0.1 µM 5,6-FAM-p97-C10 peptide to 50% saturation, concentration of p97 successively increased; competitive binding model; 50 mM NaKPi buffer, pH 7.5, 25 °C
# T1 construct: p97/VCP, residues 1-806; also called p97-wt; p97-fl; source: E. coli BL21 DE3 (T1r), purified (Ni-NTA, anion exchange)
# Ubiquitin-GST = target: T2, Ubiquitin-GST (UniProt P0CG48 1-76); test: pull-down; screening pulldown: 25 µM Ubiquitin-GST, 1 µM p97 (hexamer) and UBXD1 variant with GSH beads, 30 min, 4 °C, IP buffer; Coomassie stain
# T2 construct: ubiquitin fused at its C-terminus to GST; also called Ub-GST; source: E. coli BL21 DE3 (T1r), purified; not shown: GST, C-terminal, kept
# [1] = target: T3, ubiquitin-GST fusion protein (Ub-GST) (UniProt P0CG48 1-76); test: pull-down; screen: 25 μM ubiquitin-GST, 1 μM p97 (hexamer) and equal amounts of UBXD1 variant (released from GSH beads by PreScission) with GSH beads, 30 min, 4 °C, IP buffer
# T3 construct: source: E. coli BL21 DE3 (T1r), purified
# p97-ΔC (1–766) = target: T4, p97-ΔC (1–766) (UniProt P55072 1-766); test: fluorescence polarisation; fluorescence anisotropy; Atto594-labeled UBXD1 proteins, p97 constructs titrated; 50 mM NaKPi pH 7.5, 25 °C; all fitted with stoichiometry n = 1
# T4 construct: p97/VCP, residues 1-766; source: E. coli BL21 DE3 (T1r), purified (Ni-NTA, anion exchange)
# p97-wt (1–806) = target: T5, p97-wt (1–806) (UniProt P55072 1-806); test: as above
# T5 construct: p97/VCP, residues 1-806; also called VCP; p97-fl; source: E. coli BL21 DE3 (T1r), purified (Ni-NTA, anion exchange)
# p97-ΔD2-C (1–480) = target: T6, p97-ΔD2-C (1–480) (UniProt P55072 1-480); test: as above
# T6 construct: p97/VCP, residues 1-480; The pull-down methods give the concentration of the p97 variant as hexamer; also called ND1L; source: E. coli BL21 DE3 (T1r), purified (Ni-NTA, anion exchange)
# T6 sequence (P55072 1-480, stated change not applied): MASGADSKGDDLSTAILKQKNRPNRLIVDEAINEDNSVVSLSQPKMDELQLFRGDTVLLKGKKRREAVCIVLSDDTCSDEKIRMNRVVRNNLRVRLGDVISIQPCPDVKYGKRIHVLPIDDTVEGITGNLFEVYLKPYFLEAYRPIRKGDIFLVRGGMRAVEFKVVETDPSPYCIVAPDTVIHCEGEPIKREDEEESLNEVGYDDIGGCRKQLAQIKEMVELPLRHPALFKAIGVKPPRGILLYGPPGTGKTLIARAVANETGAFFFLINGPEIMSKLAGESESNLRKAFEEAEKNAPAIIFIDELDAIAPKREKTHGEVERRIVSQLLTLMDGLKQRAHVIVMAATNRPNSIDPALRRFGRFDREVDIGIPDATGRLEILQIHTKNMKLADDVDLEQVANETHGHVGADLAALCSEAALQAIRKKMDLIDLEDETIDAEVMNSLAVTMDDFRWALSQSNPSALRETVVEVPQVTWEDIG
# T4 sequence (P55072 1-766, stated change not applied): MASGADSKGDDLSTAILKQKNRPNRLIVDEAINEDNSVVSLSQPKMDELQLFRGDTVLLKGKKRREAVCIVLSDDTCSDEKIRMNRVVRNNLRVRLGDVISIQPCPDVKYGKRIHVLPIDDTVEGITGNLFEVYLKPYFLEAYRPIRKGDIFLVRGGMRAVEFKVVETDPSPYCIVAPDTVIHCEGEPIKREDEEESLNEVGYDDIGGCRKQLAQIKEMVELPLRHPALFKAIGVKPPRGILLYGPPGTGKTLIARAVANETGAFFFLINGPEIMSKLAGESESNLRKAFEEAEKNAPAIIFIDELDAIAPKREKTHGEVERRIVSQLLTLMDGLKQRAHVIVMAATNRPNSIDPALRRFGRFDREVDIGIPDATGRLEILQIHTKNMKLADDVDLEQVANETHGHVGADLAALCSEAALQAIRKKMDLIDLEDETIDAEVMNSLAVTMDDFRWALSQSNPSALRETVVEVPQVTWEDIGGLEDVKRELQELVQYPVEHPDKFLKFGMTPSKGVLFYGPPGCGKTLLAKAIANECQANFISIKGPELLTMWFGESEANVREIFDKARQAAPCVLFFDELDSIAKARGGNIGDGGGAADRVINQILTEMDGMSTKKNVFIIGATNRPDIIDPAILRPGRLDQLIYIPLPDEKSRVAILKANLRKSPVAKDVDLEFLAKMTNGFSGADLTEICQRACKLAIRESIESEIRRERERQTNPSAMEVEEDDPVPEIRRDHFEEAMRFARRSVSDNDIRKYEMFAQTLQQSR
# T5 sequence (P55072 whole entry, the tested form may be a part): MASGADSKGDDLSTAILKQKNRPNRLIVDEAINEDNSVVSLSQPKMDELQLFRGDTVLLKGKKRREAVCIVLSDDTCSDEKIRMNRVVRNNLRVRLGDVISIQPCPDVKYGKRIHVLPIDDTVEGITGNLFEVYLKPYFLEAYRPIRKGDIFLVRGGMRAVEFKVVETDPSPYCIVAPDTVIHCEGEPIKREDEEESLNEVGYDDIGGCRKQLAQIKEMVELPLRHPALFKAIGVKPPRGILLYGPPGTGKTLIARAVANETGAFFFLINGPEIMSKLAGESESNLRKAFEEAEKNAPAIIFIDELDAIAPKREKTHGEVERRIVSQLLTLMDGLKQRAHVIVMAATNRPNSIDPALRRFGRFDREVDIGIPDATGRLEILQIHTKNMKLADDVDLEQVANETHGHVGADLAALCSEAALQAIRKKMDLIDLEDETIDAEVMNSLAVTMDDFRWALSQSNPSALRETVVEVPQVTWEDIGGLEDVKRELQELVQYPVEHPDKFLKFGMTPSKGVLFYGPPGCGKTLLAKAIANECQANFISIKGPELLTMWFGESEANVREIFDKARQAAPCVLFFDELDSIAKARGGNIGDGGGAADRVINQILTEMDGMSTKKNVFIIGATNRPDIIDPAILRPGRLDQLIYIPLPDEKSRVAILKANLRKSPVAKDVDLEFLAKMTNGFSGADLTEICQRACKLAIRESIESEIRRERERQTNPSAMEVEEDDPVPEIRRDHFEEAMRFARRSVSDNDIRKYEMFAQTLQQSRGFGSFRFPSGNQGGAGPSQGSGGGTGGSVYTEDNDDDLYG
# T1 sequence (P55072 whole entry, the tested form may be a part): as above
binder,measurement,setting,value
"UBXD1-wt (1-441) (natural protein, human, UniProt Q9BZV1 1-441, looked up, also called UBXD1-fl; UBXN6; not shown: GST, N-terminal, cleaved) MKKFFQEFKADIKFKSAGPGQKLKESVGEKAHKEKPNQPAPRPPRQGPTNEAQMAAAAALARLEQKQSRAWGPTSQDTIRNQVRKELQAEATVSGSPEAPGTNVVSEPREEGSAHLAVPGVYFTCPLTGATLRKDQRDACIKEAILLHFSTDPVAASIMKIYTFNKDQDRVKLGVDTIAKYLDNIHLHPEEEKYRKIKLQNKVFQERINCLEGTHEFFEAIGFQKVLLPAQDQEDPEEFYVLSETTLAQPQSLERHKEQLLAAEPVRAKLDRQRRVFQPSPLASQFELPGDFFNLTAEEIKREQRLRSEAVERLSVLRTKAMREKEEQRGLRKYNYTLLRVRLPDGCLLQGTFYARERLGAVYGFVREALQSDWLPFELLASGGQKLSEDENLALNECGLVPSALLTFSWDMAVLEDIKAAGAEPDSILKPELLSAIEKLL",Kd,p97 wild type (1-806),1.1 ± 0.1 µM
"UBXD1-His E368A/D373A (natural protein, human, UniProt Q9BZV1 1-441, looked up, the mutant's name is printed in four ways; not shown: GST, N-terminal, cleaved) MKKFFQEFKADIKFKSAGPGQKLKESVGEKAHKEKPNQPAPRPPRQGPTNEAQMAAAAALARLEQKQSRAWGPTSQDTIRNQVRKELQAEATVSGSPEAPGTNVVSEPREEGSAHLAVPGVYFTCPLTGATLRKDQRDACIKEAILLHFSTDPVAASIMKIYTFNKDQDRVKLGVDTIAKYLDNIHLHPEEEKYRKIKLQNKVFQERINCLEGTHEFFEAIGFQKVLLPAQDQEDPEEFYVLSETTLAQPQSLERHKEQLLAAEPVRAKLDRQRRVFQPSPLASQFELPGDFFNLTAEEIKREQRLRSEAVERLSVLRTKAMREKEEQRGLRKYNYTLLRVRLPDGCLLQGTFYARERLGAVYGFVRAALQSAWLPFELLASGGQKLSEDENLALNECGLVPSALLTFSWDMAVLEDIKAAGAEPDSILKPELLSAIEKLL",binding result,Ubiquitin-GST,binds
"UBXD1 Q278A/F286A/L288A (full length, recombinant) (natural protein, human, UniProt Q9BZV1 1-441, looked up, UBXD1 (UBXN6), human, mutant in the context of recombinant UBXD1-fl) MKKFFQEFKADIKFKSAGPGQKLKESVGEKAHKEKPNQPAPRPPRQGPTNEAQMAAAAALARLEQKQSRAWGPTSQDTIRNQVRKELQAEATVSGSPEAPGTNVVSEPREEGSAHLAVPGVYFTCPLTGATLRKDQRDACIKEAILLHFSTDPVAASIMKIYTFNKDQDRVKLGVDTIAKYLDNIHLHPEEEKYRKIKLQNKVFQERINCLEGTHEFFEAIGFQKVLLPAQDQEDPEEFYVLSETTLAQPQSLERHKEQLLAAEPVRAKLDRQRRVFAPSPLASQAEAPGDFFNLTAEEIKREQRLRSEAVERLSVLRTKAMREKEEQRGLRKYNYTLLRVRLPDGCLLQGTFYARERLGAVYGFVREALQSDWLPFELLASGGQKLSEDENLALNECGLVPSALLTFSWDMAVLEDIKAAGAEPDSILKPELLSAIEKLL",binding result,[1],binds
"UBXD1 R274A (full length, recombinant) (natural protein, human, UniProt Q9BZV1 1-441, looked up, UBXD1 (UBXN6), human, mutant in the context of recombinant UBXD1-fl) MKKFFQEFKADIKFKSAGPGQKLKESVGEKAHKEKPNQPAPRPPRQGPTNEAQMAAAAALARLEQKQSRAWGPTSQDTIRNQVRKELQAEATVSGSPEAPGTNVVSEPREEGSAHLAVPGVYFTCPLTGATLRKDQRDACIKEAILLHFSTDPVAASIMKIYTFNKDQDRVKLGVDTIAKYLDNIHLHPEEEKYRKIKLQNKVFQERINCLEGTHEFFEAIGFQKVLLPAQDQEDPEEFYVLSETTLAQPQSLERHKEQLLAAEPVRAKLDRQARVFQPSPLASQFELPGDFFNLTAEEIKREQRLRSEAVERLSVLRTKAMREKEEQRGLRKYNYTLLRVRLPDGCLLQGTFYARERLGAVYGFVREALQSDWLPFELLASGGQKLSEDENLALNECGLVPSALLTFSWDMAVLEDIKAAGAEPDSILKPELLSAIEKLL",binding result,[1],binds
"UBXD1 R305A (full length, recombinant) (natural protein, human, UniProt Q9BZV1 1-441, looked up, UBXD1 (UBXN6), human, mutant in the context of recombinant UBXD1-fl) MKKFFQEFKADIKFKSAGPGQKLKESVGEKAHKEKPNQPAPRPPRQGPTNEAQMAAAAALARLEQKQSRAWGPTSQDTIRNQVRKELQAEATVSGSPEAPGTNVVSEPREEGSAHLAVPGVYFTCPLTGATLRKDQRDACIKEAILLHFSTDPVAASIMKIYTFNKDQDRVKLGVDTIAKYLDNIHLHPEEEKYRKIKLQNKVFQERINCLEGTHEFFEAIGFQKVLLPAQDQEDPEEFYVLSETTLAQPQSLERHKEQLLAAEPVRAKLDRQRRVFQPSPLASQFELPGDFFNLTAEEIKREQALRSEAVERLSVLRTKAMREKEEQRGLRKYNYTLLRVRLPDGCLLQGTFYARERLGAVYGFVREALQSDWLPFELLASGGQKLSEDENLALNECGLVPSALLTFSWDMAVLEDIKAAGAEPDSILKPELLSAIEKLL",binding result,[1],binds
"UBXD1 R305A/R307A/V316A (full length, recombinant) (natural protein, human, UniProt Q9BZV1 1-441, looked up, UBXD1 (UBXN6), human, mutant in the context of recombinant UBXD1-fl) MKKFFQEFKADIKFKSAGPGQKLKESVGEKAHKEKPNQPAPRPPRQGPTNEAQMAAAAALARLEQKQSRAWGPTSQDTIRNQVRKELQAEATVSGSPEAPGTNVVSEPREEGSAHLAVPGVYFTCPLTGATLRKDQRDACIKEAILLHFSTDPVAASIMKIYTFNKDQDRVKLGVDTIAKYLDNIHLHPEEEKYRKIKLQNKVFQERINCLEGTHEFFEAIGFQKVLLPAQDQEDPEEFYVLSETTLAQPQSLERHKEQLLAAEPVRAKLDRQRRVFQPSPLASQFELPGDFFNLTAEEIKREQALASEAVERLSALRTKAMREKEEQRGLRKYNYTLLRVRLPDGCLLQGTFYARERLGAVYGFVREALQSDWLPFELLASGGQKLSEDENLALNECGLVPSALLTFSWDMAVLEDIKAAGAEPDSILKPELLSAIEKLL",binding result,[1],binds
"UBXD1 R307A (full length, recombinant) (natural protein, human, UniProt Q9BZV1 1-441, looked up, UBXD1 (UBXN6), human, mutant in the context of recombinant UBXD1-fl) MKKFFQEFKADIKFKSAGPGQKLKESVGEKAHKEKPNQPAPRPPRQGPTNEAQMAAAAALARLEQKQSRAWGPTSQDTIRNQVRKELQAEATVSGSPEAPGTNVVSEPREEGSAHLAVPGVYFTCPLTGATLRKDQRDACIKEAILLHFSTDPVAASIMKIYTFNKDQDRVKLGVDTIAKYLDNIHLHPEEEKYRKIKLQNKVFQERINCLEGTHEFFEAIGFQKVLLPAQDQEDPEEFYVLSETTLAQPQSLERHKEQLLAAEPVRAKLDRQRRVFQPSPLASQFELPGDFFNLTAEEIKREQRLASEAVERLSVLRTKAMREKEEQRGLRKYNYTLLRVRLPDGCLLQGTFYARERLGAVYGFVREALQSDWLPFELLASGGQKLSEDENLALNECGLVPSALLTFSWDMAVLEDIKAAGAEPDSILKPELLSAIEKLL",binding result,[1],binds
"UBXD1-wt (1–441), Atto594-labeled for fluorescence anisotropy with p97 (natural protein, human, UniProt Q9BZV1 1-441, looked up, Atto594 (NHS ester, ratio 1:1.2), not shown: GST, N-terminal, cleaved) MKKFFQEFKADIKFKSAGPGQKLKESVGEKAHKEKPNQPAPRPPRQGPTNEAQMAAAAALARLEQKQSRAWGPTSQDTIRNQVRKELQAEATVSGSPEAPGTNVVSEPREEGSAHLAVPGVYFTCPLTGATLRKDQRDACIKEAILLHFSTDPVAASIMKIYTFNKDQDRVKLGVDTIAKYLDNIHLHPEEEKYRKIKLQNKVFQERINCLEGTHEFFEAIGFQKVLLPAQDQEDPEEFYVLSETTLAQPQSLERHKEQLLAAEPVRAKLDRQRRVFQPSPLASQFELPGDFFNLTAEEIKREQRLRSEAVERLSVLRTKAMREKEEQRGLRKYNYTLLRVRLPDGCLLQGTFYARERLGAVYGFVREALQSDWLPFELLASGGQKLSEDENLALNECGLVPSALLTFSWDMAVLEDIKAAGAEPDSILKPELLSAIEKLL",Kd,p97-ΔC (1–766),11.9 ± 0.2 µM
same,Kd,p97-wt (1–806),1.64 µM
"UBXD1-VIMx (1–441, DI11/12AA, RL62/63AA) (natural protein, human, UniProt Q9BZV1 1-441, looked up, Atto594 (NHS ester; the UBXD1 proteins were labeled for anisotropy), also called UBXD1-VIMx mutant; not shown: GST, N-terminal, cleaved) MKKFFQEFKAAAKFKSAGPGQKLKESVGEKAHKEKPNQPAPRPPRQGPTNEAQMAAAAALAAAEQKQSRAWGPTSQDTIRNQVRKELQAEATVSGSPEAPGTNVVSEPREEGSAHLAVPGVYFTCPLTGATLRKDQRDACIKEAILLHFSTDPVAASIMKIYTFNKDQDRVKLGVDTIAKYLDNIHLHPEEEKYRKIKLQNKVFQERINCLEGTHEFFEAIGFQKVLLPAQDQEDPEEFYVLSETTLAQPQSLERHKEQLLAAEPVRAKLDRQRRVFQPSPLASQFELPGDFFNLTAEEIKREQRLRSEAVERLSVLRTKAMREKEEQRGLRKYNYTLLRVRLPDGCLLQGTFYARERLGAVYGFVREALQSDWLPFELLASGGQKLSEDENLALNECGLVPSALLTFSWDMAVLEDIKAAGAEPDSILKPELLSAIEKLL",Kd,p97-ΔC (1–766),87 ± 1 µM
same,Kd,p97-ΔD2-C (1–480),466 ± 9 µM
"UBXD1-ΔUBX-C (1–332), recombinant, for fluorescence anisotropy (domain or fragment, human, UniProt Q9BZV1 1-332, looked up, Atto594 (NHS ester; the UBXD1 proteins were labeled for anisotropy), also called UBX deletion mutant of UBXD1; not shown: GST, N-terminal, cleaved) MKKFFQEFKADIKFKSAGPGQKLKESVGEKAHKEKPNQPAPRPPRQGPTNEAQMAAAAALARLEQKQSRAWGPTSQDTIRNQVRKELQAEATVSGSPEAPGTNVVSEPREEGSAHLAVPGVYFTCPLTGATLRKDQRDACIKEAILLHFSTDPVAASIMKIYTFNKDQDRVKLGVDTIAKYLDNIHLHPEEEKYRKIKLQNKVFQERINCLEGTHEFFEAIGFQKVLLPAQDQEDPEEFYVLSETTLAQPQSLERHKEQLLAAEPVRAKLDRQRRVFQPSPLASQFELPGDFFNLTAEEIKREQRLRSEAVERLSVLRTKAMREKEEQRGLR",Kd,p97-ΔC (1–766),18.6 ± 0.7 µM
same,Kd,p97-ΔD2-C (1–480),26 ± 2 µM
"UBXD1-eUBX-C (269–441), for fluorescence anisotropy (domain or fragment, human, UniProt Q9BZV1 269-441, looked up, Atto594 (NHS ester; the UBXD1 proteins were labeled for anisotropy), also called eUBX-C domain; not shown: GST, N-terminal, cleaved) KLDRQRRVFQPSPLASQFELPGDFFNLTAEEIKREQRLRSEAVERLSVLRTKAMREKEEQRGLRKYNYTLLRVRLPDGCLLQGTFYARERLGAVYGFVREALQSDWLPFELLASGGQKLSEDENLALNECGLVPSALLTFSWDMAVLEDIKAAGAEPDSILKPELLSAIEKLL",Kd,p97-wt (1–806),131 ± 14 µM
